Measured values reported in paper doi:10.1101/2022.09.29.510206 (bioRxiv, 2022).

B1: mouse Fz8_(CRD-Connector), residues 30-170 (domain or fragment, UniProt Q61091 30-170, looked up)
chain: AKELACQEITVPLCKGIGYNYTYMPNQFNHDTQDEAGLEVHQFWPLVEIQCSPDLKFFLCSMYTPICLEDYKKPLPPCRSVCERAKAGCAPLMRQYGFAWPDRMRCDRLPEQGNPDTLCMDYNRTDLTTAAPSPPRRLPPP
B2: chimaera of Fz4CRD+Fz8_(Connector) (domain or fragment, human | mouse, UniProt Q9ULV1 42-151, looked up)
chain: ERRCDPIRISMCQNLGYNVTKMPNLVGHELQTDAELQLTTFTPLIQYGCSSQLQFFLCSVYVPMCTEKINIPIGPCGGMCLSVKRRCEPVLKEFGFAWPESLNCSKFPPQGNPDTLCMDYNRTDLTTAAPSPPRRLPPP
B3: Fz4_(CRD-Connector) (M105N) mutant (domain or fragment, human, UniProt Q9ULV1 42-179, looked up)
chain: ERRCDPIRISMCQNLGYNVTKMPNLVGHELQTDAELQLTTFTPLIQYGCSSQLQFFLCSVYVPNCTEKINIPIGPCGGMCLSVKRRCEPVLKEFGFAWPESLNCSKFPPQNDHNHMCMEGPGDEEVPLPHKTPIQPGE
modifications: M105N is meant to introduce an N-linked glycosylation site

Biological target: Norrin (Norrie Disease Protein), biotinylated (UniProt Q00604 25-133, biotin (in vivo biotinylation))
Sequence (Q00604 25-133): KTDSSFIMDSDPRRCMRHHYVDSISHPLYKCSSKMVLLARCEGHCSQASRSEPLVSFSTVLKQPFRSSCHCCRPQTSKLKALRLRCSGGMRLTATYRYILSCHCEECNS
Assay: SPR

Binder | fold weaker affinity than Fz4_(CRD-Connector)
B1 | ~55 fold
B2 | ~15 fold
B3 | ~53 fold
